The values below come from the supplement of paper PMC9170038.

In this data set the test system is MS2 coat protein. Description: apparent KD of MS2 coat protein; designed switch direction (-1 OFF switch, 1 ON switch): -1; higher = weaker reporter binding. The essentials:
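SNAP-549-labelled MS2 coat protein was titrated, doubling from 0.7 or 1.5 nM to 3 µM, over designed RNA switches transcribed on Illumina chips by stalled E. coli RNA polymerase. Runs were done without input, with 200 uM small-molecule ligand, or with an oligonucleotide input. Apparent KD is the per-design median over clusters of curve-fitted normalised fluorescence.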

[1] abbreviates: input ligand: microRNA oligo, concentration not stated.
The mark [2] stands for this setting: Eterna round: R95, input ligand: microRNA oligo, concentration not stated.
[3] abbreviates: Eterna round: R95, input ligand: FMN 200 uM.
The mark [4] stands for this setting: Eterna round: R95, input ligand: none.

Regarding “ACAUGAGGAUCACCCAUGUUCGGCUGGUCCGUUUCGGCUGUCGAGGAUAUAGUUCGGUGUCCGCGCUAGAAGGCGGGAGCCGGC [Aenatbe mod 63] (Eterna round: R96, puzzle: Exclusion NG 3)”, the “apparent KD of MS2 coat protein” value runs as follows: (input ligand: FMN 200 uM) 153 nM; under setting [1], 54.5 nM; (input ligand: none) 78.5 nM.
In the same order, the values of “ACAUGUAAUGCAGGAUAUCGGACACAUGAGGAUCACCCAUGUGACCAGAGGUAUUGCUAAGAGUCUGAGAAGGGUAUGUACAUG [Ex NG2 #50] (Eterna round: R96, puzzle: Exclusion NG 2)” are 20 nM, 17.5 nM and 19.1 nM.
With “ACAUGUAAUGCAGGAUAUUUUACACAUGAGGAUCACCCAUGUGACCAGAGGAAUUGCUAUGAGUAGAAGAAGGGUAUGUACAUG [Ex NG2 #56] (Eterna round: R96, puzzle: Exclusion NG 2)”, the “apparent KD of MS2 coat protein” value (input ligand: FMN 200 uM) was 78.8 nM, the “apparent KD of MS2 coat protein” value under setting [1] was found to be 56.7 nM and the “apparent KD of MS2 coat protein” value (input ligand: none) is 64.4 nM.
With “ACAUGUAUUGCAGGAUAUGGGACACAUGAGGAUCACCCAUGUGACUACAUGUCAUACCAAGCGUCUCAGAAGGGUAUGUACAUG [Ex NG2 #38] (Eterna round: R96, puzzle: Exclusion NG 2)”, the “apparent KD of MS2 coat protein” value reads like this: (input ligand: FMN 200 uM) 21.3 nM; under setting [1], 15.8 nM; (input ligand: none) 18.5 nM.
Take “ACAUGUGUUGUAGGAUAUAGGAGACAUGAGGAUCACCCAUGUUGAUUCAUGUCUAUGGAAACGUCCUAGAAGGACGACAAUAUG [Ex NG2 #19] (Eterna round: R96, puzzle: Exclusion NG 2)”: the “apparent KD of MS2 coat protein” value by setting is: (input ligand: FMN 200 uM) 283 nM; under setting [1], 179 nM; (input ligand: none) 272 nM.
On to “ACAUGUUAUGUAGGAUAUUGGACACAUGAGGAUCACCCAUGUACCCGGAGGCUUUACUAUGAGUUCGAGAAGGGUAUGUACAUG [Ex NG2 #69] (Eterna round: R96, puzzle: Exclusion NG 2)”, for which the “apparent KD of MS2 coat protein” value reads like this: (input ligand: FMN 200 uM) 35.3 nM; under setting [1], 33.7 nM; (input ligand: none) 47.1 nM.
In the case of “ACCUUACAUGAGGAUCACCCAUGUCAGGAUAUCUCGGACAGCUGAAAACCAGCCGUCCAGAGAAGGGACGAGGA [Tiaza] (puzzle: Exclusion 1)”, the “apparent KD of MS2 coat protein” value under setting [2] was 12.8 nM.
Regarding “ACCUUACAUGAGGAUCACCCAUGUCAGGAUAUCUCGGGCGGCCAAGGGCCGGCCGCCCAGAGAAGGGACGAGGA [Inusla] (puzzle: Exclusion 1)”, the “apparent KD of MS2 coat protein” value under setting [2] came to 12.1 nM.
The same measure, in the same setting: with “ACGAAACAUGAGGAUCACCCAUGUGAGGAUAUGUAAAUACUAGACAAAUAACAGAAAAACAGAAGGCACUCAGA [JR_Exclusion1_Sub003] (puzzle: Exclusion 1)” the figure was 22 nM.
As for “ACGAGGAUUACAGGAUAUGAAGCUAAAACGGCGUUAGAAGGGUAUACAGAGUUACAUGAGGAUCACCCAUGUUGUGAUUUCGAA [AK ExNG1-V2-4.1] (Eterna round: R96, puzzle: Exclusion NG 1)”, the “apparent KD of MS2 coat protein” value runs as follows: (input ligand: FMN 200 uM) 158 nM; under setting [1], 115 nM; (input ligand: none) 134 nM.
For the sequence “ACGAUGACCGAAAAGUGUCAACUGACAUGAGGAUCACCCAUGUAGGAUAUGGCUACGAAAAGUAGUCAGAAGGACAAGUCAUCA [Omei Exc(NG) 3 Av5] (Eterna round: R96, puzzle: Exclusion NG 3)”, the “apparent KD of MS2 coat protein” value by setting is: (input ligand: FMN 200 uM) 12.4 nM; under setting [1], 8.52 nM; (input ligand: none) 14 nM.
Consider “ACGCGACAUGAGGAUCACCCAUGUGAGGAUAUGGCCUGUUUGUCGUGUGCUGGCUCUGUCAGAAGGCGCGUGGG [salish99_ex1_r4_041] (Eterna round: R97, puzzle: Exclusion 1)”, for which the “apparent KD of MS2 coat protein” value reads like this: (input ligand: FMN 200 uM) 612 nM; (input ligand: none) 683 nM.
On to “ACGUAUAGAGGAUAUAGUGAAUAUUACAUGAGGAUCACCCAUGUUCUUCAAAGUAUAUUUCUAGAAGGCUAAUGAA [EX-5 Malc#10] (puzzle: Exclusion 5)”, for which the “apparent KD of MS2 coat protein” value under setting [2] was determined as 35.5 nM.
Regarding “ACGUGAUAUCUGUCGGUGGACAUGAGGAUCACCCAUGUAAGCUCUUUGCUCGUCUUAUAACCCGGUGACAGACCUUC [Xerile] (puzzle: Sensor v3, turn-off variant 1)”, the “apparent KD of MS2 coat protein” value is, setting by setting: under setting [3], 42.3 nM; under setting [2], 322 nM; under setting [4], 52.8 nM.
As for “ACGUUAGGAGGAUAUAGAAUUUUAGACAUGAGGAUCACCCAUGUCCUAUGUCAUGAGAGGCUAGAAGGCCUAGUUU [Eternabot (L2) Solution 51] (Eterna round: R97, puzzle: Exclusion 5)”, the “apparent KD of MS2 coat protein” value (input ligand: FMN 200 uM) is 142 nM and the “apparent KD of MS2 coat protein” value (input ligand: none) worked out at 29.4 nM.
“ACUAGAUGAGGAUAUGCAUAUUUUCGUGUUCUUCUAGAUUAACAUGAGGAUCACCCAUGUAGAAGGCGUCUGGA [Exclusion 2 - 18] (puzzle: Exclusion 2)”: the “apparent KD of MS2 coat protein” value under setting [2] came to 17.6 nM.
Take “ACUAUUAGAGGAUAUACAGUUUAUUACAUGAGGAUCACCCAUGUUCUUCAAUGUAUAUAAGUAGAAGGCUAAGGAA [EX-5 Malc#3] (puzzle: Exclusion 5)”: the “apparent KD of MS2 coat protein” value under setting [3] amounted to 114 nM, the “apparent KD of MS2 coat protein” value under setting [2] came to 45.9 nM and the “apparent KD of MS2 coat protein” value under setting [4] worked out at 38.2 nM.
For the sequence “ACUCACGCAGGAUAUACAUGAGGAUCACCCAUGUUCAAAGGGCGCGGGAACAUCGUCUGUAGAAGGGCGAACAU [jl-ex3-4.62 ViennaUCT mod] (Eterna round: R97, puzzle: Exclusion 3)”, the “apparent KD of MS2 coat protein” value amounted to 40.4 nM (input ligand: FMN 200 uM) and 29 nM (input ligand: none).
For “ACUGGAUGCAAGCAGGUCCACAUGAGGAUCACCCAUGUUCGUCGGCCAGCAUCGGCUUCUACCGCAAGCCGCGUGCA [Eternabot (L1) Solution 27] (Eterna round: R97, puzzle: Sensor, turn-off variant 1)”, the “apparent KD of MS2 coat protein” value is, setting by setting: (input ligand: FMN 200 uM) 15.9 nM; (input ligand: none) 18.8 nM.
In the same order, the values of “ACUUACUGAGGAUAUACAUAGAUUUACAUGAGGAUCACCCAUGUUCCUCUUUGUAUAAAUGUAGAAGGCAGAAGAA [Mat - Exclusion 5 - JL Mod - D58] (Eterna round: R97, puzzle: Exclusion 5)” are 177 nM and 93.6 nM.
In the same order, the values of “ACUUACUGAGGAUAUACUUAGAUUUACAUGAGGAUCACCCAUGUUCCUCUAUGUAUAUAUGUAGAAGGCAGAAGUA [Mat - Exclusion 5 - JL Mod - D50] (Eterna round: R97, puzzle: Exclusion 5)” are 252 nM and 38 nM.
With “AGAAAACAUGAGGAUCACCCAUGUGAGGAUAUCGCGCUUAACAGGGUCACAGUGGUGUCGAGAAGGUGCCUGGG [Eternabot (L1) Solution 55] (Eterna round: R97, puzzle: Exclusion 1)”, the “apparent KD of MS2 coat protein” value (input ligand: FMN 200 uM) is 144 nM and the “apparent KD of MS2 coat protein” value (input ligand: none) stood at 66.3 nM.
Consider “AGAAAGGUAGGAUAUACGAAAAAAAAGGGUAGAAAAAAAACACAUGAGGAUCACCCAUGUAGAAGGACCAAAGA [Mat - Exclusion 2 - Tesla mod - D31] (Eterna round: R96, puzzle: Exclusion 2)”, for which the “apparent KD of MS2 coat protein” value under setting [1] came out at 27.6 nM.
As to “AGAAGUAGAAACCGAUCCUACAUGAGGAUCACCCAUGUAGCAAGACGUGCACGCGAAGCUCGUCAGACUACCAGAGG [salish99_TOv1_r3_018] (puzzle: Sensor v3, turn-off variant 1)”, the “apparent KD of MS2 coat protein” value stood at 316 nM under setting [3], 124 nM under setting [2] and 50.1 nM under setting [4].
As to “AGAGUACAUGAGGAUCACCCAUGUCAGGAUAUGCAGAAGAAGAAGAAGAGAAGAGAGAGCAGAAGGGACAAGAG [Ex 1 M2] (puzzle: Exclusion 1)”, the “apparent KD of MS2 coat protein” value under setting [3] turned out to be 41.1 nM, the “apparent KD of MS2 coat protein” value under setting [2] turned out to be 26.2 nM and the “apparent KD of MS2 coat protein” value under setting [4] is 29.4 nM.
“AGAGUGCUGCGAGGAUAUACAUGAGGAUCACCCAUGUAAAAGUGUGAGGCUUUGCCUCACACUAUGUAGAAGGCGCAGUACUCA [Mat - Exclusion NG 2 - Mod of JL - D10] (Eterna round: R96, puzzle: Exclusion NG 2)”: the “apparent KD of MS2 coat protein” value by setting is: (input ligand: FMN 200 uM) 17.6 nM; under setting [1], 9.4 nM; (input ligand: none) 13.4 nM.
For the sequence “AGAGUGCUGCGAGGAUAUACAUGAGGAUCACCCAUGUAAUCGUGUGAGGCAAAGCCUCACACGAUGUAGAAGGCGCAGUACUCA [Mat - Exclusion NG 2 - Mod of JL - D24] (Eterna round: R96, puzzle: Exclusion NG 2)”, the “apparent KD of MS2 coat protein” value came out at 13.1 nM (input ligand: FMN 200 uM), 12.8 nM under setting [1] and 16.7 nM (input ligand: none).
For the sequence “AGAUAGUGGUGAGGAUAUCAGAAUAGAAAGAAAUGAGAAGGCGCACAUGAGGAUCACCCAUGUGAGGUCUUGAGACUACAUGGU [Prohibition 39 - Jieux - Exclusion NG 1] (Eterna round: R96, puzzle: Exclusion NG 1)”, the “apparent KD of MS2 coat protein” value under setting [1] was 15.7 nM.
Regarding “AGAUCCUGAGUCAGGAUAUAGAGACGGUAGUCGGGCUAGAAGGGACAUGAGGAUCACCCAUGUGGGUUCUUGCC [Rilalera] (puzzle: Brourd's mod of Exclusion 4)”, the “apparent KD of MS2 coat protein” value under setting [2] stood at 10.1 nM.
“AGAUCGUCAGGAUAUACAUGAGGAUCACCCAUGUGUAGUUCCAAUUGGACUACAACAUGUAGAAGGGACGAUCG [Exclusion 3 (MOD1 of #1 Marzena11)] (Eterna round: R97, puzzle: Exclusion 3)”: the “apparent KD of MS2 coat protein” value reads like this: (input ligand: FMN 200 uM) 1060 nM; (input ligand: none) 675 nM.
Turning to “AGAUCUAGGACAGGAUAUACAGAUGGCUUCAUCGAAGAUGAAGCCAUCACAUGAGGAUCACCCAUGUAGAAGGGUCCUAGAUCA [Omei Exc(NG) 2Av4] (Eterna round: R96, puzzle: Exclusion NG 2)”, the “apparent KD of MS2 coat protein” value by setting is: (input ligand: FMN 200 uM) 19.2 nM; under setting [1], 9.47 nM; (input ligand: none) 13.2 nM.
